From doi:10.1101/2024.09.04.610228 (bioRxiv, 2024)
Ends that are not written are not given here.

Target: FOXO4 forkhead domain (FHD) (95-195) (UniProt P98177 95-195)
Experiment: fluorescence polarisation

Chain of FOXO4 forkhead domain (FHD) (95-195) (P98177 95-195): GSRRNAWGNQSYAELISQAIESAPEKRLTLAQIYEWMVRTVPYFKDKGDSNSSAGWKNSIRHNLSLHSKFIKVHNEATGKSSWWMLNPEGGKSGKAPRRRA

Binder: DLMLSPDDIEQWFTED (also: FITC label, position not given here) [FITC-labeled p53 TAD PEP (42-57)]
- Kd: 110 nM

Binder: ALMLSPAAIAQWFTAA [CAND]
- fold enhancement of inhibitory ability against p53 TAD PEP: ~3 fold
